Results published in US20220306751A1 (MYTHIC THERAPEUTICS, published 2022).

T1: CD123 Protein, His Tag, Acro Biosciences Cat. No. ILA-H52H6 (Homo sapiens (Human), UniProt P26951 19-305)
T1 construct: Bought protein; not shown: His tag
T1 sequence: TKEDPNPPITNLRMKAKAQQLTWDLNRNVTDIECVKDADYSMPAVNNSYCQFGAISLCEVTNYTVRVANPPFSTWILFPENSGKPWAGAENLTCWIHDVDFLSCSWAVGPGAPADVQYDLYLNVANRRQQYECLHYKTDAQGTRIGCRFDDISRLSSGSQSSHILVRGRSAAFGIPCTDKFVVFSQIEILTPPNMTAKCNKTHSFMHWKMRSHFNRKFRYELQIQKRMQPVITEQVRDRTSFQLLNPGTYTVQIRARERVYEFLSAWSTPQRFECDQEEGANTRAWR


Biological target: T1, CD123 Protein, His Tag, Acro …
Experiment: BLI, IgG on anti-human Fc sensor, 50 nM CD123, pH 7.4 and pH 5.4
Procedure, shortened: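 Single His/Ala heavy-chain CDR variants were expressed in Expi293 and captured from diluted supernatant on anti-human Fc sensors. By BLI, association with 50 nM His-tagged CD123 ran for 120 s and dissociation for 300–600 s, all in PBST pH 7.4. The full cycle was repeated separately in PBST pH 5.4.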

Row | Binder | binding result
1 | MYT2775 (antibody, V domains shown, IgG) VH: QVQLVQSGAEVKKPGASVKVSCKASGYIFTSSIMHWVRQAPGQGLEWIGYIKPYNDGTKYNEKFKGRATLTSDRSTSTAYMELSSLRSEDTAVYYCAREGGNDYYDTMDYWGQGTLVTVSS VL: DIQMTQSPSSLSASVGDRVTITCRAHQDINSYLSWFQQKPGKAPKTLIYRVNRLVDGVPSRFSGSGSGNDYTLTISSLQPEDFATYYCLQYDAFPYTFGQGTKVEIK | binds
2 | MYT2792 (antibody, V domains shown, IgG) VH: QVQLVQSGAEVKKPGASVKVSCKASGYIFTSSIMHWVRQAPGQGLEWIGYIKPYNDGTKYNEKFKGRATLTSDRSTSTAYMELSSLRSEDTAVYYCAREGGNDYYDTMDYWGQGTLVTVSS VL: DIQMTQSPSSLSASVGDRVTITCRASQDINSYLSWFQQKPGKAPKTLIYRVNRLVDGVPSRFSGSGSGNDYTLTISSLQPEDFATYYCLHYDAFPYTFGQGTKVEIK | binds
3 | MYT2779 (antibody, V domains shown, IgG) VH: QVQLVQSGAEVKKPGASVKVSCKASGYIFTSSIMHWVRQAPGQGLEWIGYIKPYNDGTKYNEKFKGRATLTSDRSTSTAYMELSSLRSEDTAVYYCAREGGNDYYDTMDYWGQGTLVTVSS VL: DIQMTQSPSSLSASVGDRVTITCRASQDIHSYLSWFQQKPGKAPKTLIYRVNRLVDGVPSRFSGSGSGNDYTLTISSLQPEDFATYYCLQYDAFPYTFGQGTKVEIK | binds
4 | MYT2791 (antibody, V domains shown, IgG) VH: QVQLVQSGAEVKKPGASVKVSCKASGYIFTSSIMHWVRQAPGQGLEWIGYIKPYNDGTKYNEKFKGRATLTSDRSTSTAYMELSSLRSEDTAVYYCAREGGNDYYDTMDYWGQGTLVTVSS VL: DIQMTQSPSSLSASVGDRVTITCRASQDINSYLSWFQQKPGKAPKTLIYRVNRLVDGVPSRFSGSGSGNDYTLTISSLQPEDFATYYCHQYDAFPYTFGQGTKVEIK | binds
5 | MYT2776 (antibody, V domains shown, IgG) VH: QVQLVQSGAEVKKPGASVKVSCKASGYIFTSSIMHWVRQAPGQGLEWIGYIKPYNDGTKYNEKFKGRATLTSDRSTSTAYMELSSLRSEDTAVYYCAREGGNDYYDTMDYWGQGTLVTVSS VL: DIQMTQSPSSLSASVGDRVTITCRASHDINSYLSWFQQKPGKAPKTLIYRVNRLVDGVPSRFSGSGSGNDYTLTISSLQPEDFATYYCLQYDAFPYTFGQGTKVEIK | binds
6 | MYT2789 (antibody, V domains shown, IgG) VH: QVQLVQSGAEVKKPGASVKVSCKASGYIFTSSIMHWVRQAPGQGLEWIGYIKPYNDGTKYNEKFKGRATLTSDRSTSTAYMELSSLRSEDTAVYYCAREGGNDYYDTMDYWGQGTLVTVSS VL: DIQMTQSPSSLSASVGDRVTITCRASQDINSYLSWFQQKPGKAPKTLIYRVNRLHDGVPSRFSGSGSGNDYTLTISSLQPEDFATYYCLQYDAFPYTFGQGTKVEIK | binds
7 | MYT2777 (antibody, V domains shown, IgG) VH: QVQLVQSGAEVKKPGASVKVSCKASGYIFTSSIMHWVRQAPGQGLEWIGYIKPYNDGTKYNEKFKGRATLTSDRSTSTAYMELSSLRSEDTAVYYCAREGGNDYYDTMDYWGQGTLVTVSS VL: DIQMTQSPSSLSASVGDRVTITCRASQHINSYLSWFQQKPGKAPKTLIYRVNRLVDGVPSRFSGSGSGNDYTLTISSLQPEDFATYYCLQYDAFPYTFGQGTKVEIK | binds
8 | MYT2781 (antibody, V domains shown, IgG) VH: QVQLVQSGAEVKKPGASVKVSCKASGYIFTSSIMHWVRQAPGQGLEWIGYIKPYNDGTKYNEKFKGRATLTSDRSTSTAYMELSSLRSEDTAVYYCAREGGNDYYDTMDYWGQGTLVTVSS VL: DIQMTQSPSSLSASVGDRVTITCRASQDINSHLSWFQQKPGKAPKTLIYRVNRLVDGVPSRFSGSGSGNDYTLTISSLQPEDFATYYCLQYDAFPYTFGQGTKVEIK | binds
9 | MYT2786 (antibody, V domains shown, IgG) VH: QVQLVQSGAEVKKPGASVKVSCKASGYIFTSSIMHWVRQAPGQGLEWIGYIKPYNDGTKYNEKFKGRATLTSDRSTSTAYMELSSLRSEDTAVYYCAREGGNDYYDTMDYWGQGTLVTVSS VL: DIQMTQSPSSLSASVGDRVTITCRASQDINSYLSWFQQKPGKAPKTLIYRVHRLVDGVPSRFSGSGSGNDYTLTISSLQPEDFATYYCLQYDAFPYTFGQGTKVEIK | binds
10 | MYT2788 (antibody, V domains shown, IgG) VH: QVQLVQSGAEVKKPGASVKVSCKASGYIFTSSIMHWVRQAPGQGLEWIGYIKPYNDGTKYNEKFKGRATLTSDRSTSTAYMELSSLRSEDTAVYYCAREGGNDYYDTMDYWGQGTLVTVSS VL: DIQMTQSPSSLSASVGDRVTITCRASQDINSYLSWFQQKPGKAPKTLIYRVNRHVDGVPSRFSGSGSGNDYTLTISSLQPEDFATYYCLQYDAFPYTFGQGTKVEIK | binds
11 | MYT2780 (antibody, V domains shown, IgG) VH: QVQLVQSGAEVKKPGASVKVSCKASGYIFTSSIMHWVRQAPGQGLEWIGYIKPYNDGTKYNEKFKGRATLTSDRSTSTAYMELSSLRSEDTAVYYCAREGGNDYYDTMDYWGQGTLVTVSS VL: DIQMTQSPSSLSASVGDRVTITCRASQDINHYLSWFQQKPGKAPKTLIYRVNRLVDGVPSRFSGSGSGNDYTLTISSLQPEDFATYYCLQYDAFPYTFGQGTKVEIK | binds

Results, then the binder that gave them:

Row | binding result | Binder
12 | binds | MYT2785 (antibody, V domains shown, IgG) VH: QVQLVQSGAEVKKPGASVKVSCKASGYIFTSSIMHWVRQAPGQGLEWIGYIKPYNDGTKYNEKFKGRATLTSDRSTSTAYMELSSLRSEDTAVYYCAREGGNDYYDTMDYWGQGTLVTVSS VL: DIQMTQSPSSLSASVGDRVTITCRASQDINSYLSWFQQKPGKAPKTLIYRHNRLVDGVPSRFSGSGSGNDYTLTISSLQPEDFATYYCLQYDAFPYTFGQGTKVEIK
13 | binds | MYT2790 (antibody, V domains shown, IgG) VH: QVQLVQSGAEVKKPGASVKVSCKASGYIFTSSIMHWVRQAPGQGLEWIGYIKPYNDGTKYNEKFKGRATLTSDRSTSTAYMELSSLRSEDTAVYYCAREGGNDYYDTMDYWGQGTLVTVSS VL: DIQMTQSPSSLSASVGDRVTITCRASQDINSYLSWFQQKPGKAPKTLIYRVNRLVHGVPSRFSGSGSGNDYTLTISSLQPEDFATYYCLQYDAFPYTFGQGTKVEIK
14 | binds | MYT2793 (antibody, V domains shown, IgG) VH: QVQLVQSGAEVKKPGASVKVSCKASGYIFTSSIMHWVRQAPGQGLEWIGYIKPYNDGTKYNEKFKGRATLTSDRSTSTAYMELSSLRSEDTAVYYCAREGGNDYYDTMDYWGQGTLVTVSS VL: DIQMTQSPSSLSASVGDRVTITCRASQDINSYLSWFQQKPGKAPKTLIYRVNRLVDGVPSRFSGSGSGNDYTLTISSLQPEDFATYYCLQHDAFPYTFGQGTKVEIK
15 | binds | MYT2783 (antibody, V domains shown, IgG) VH: QVQLVQSGAEVKKPGASVKVSCKASGYIFTSSIMHWVRQAPGQGLEWIGYIKPYNDGTKYNEKFKGRATLTSDRSTSTAYMELSSLRSEDTAVYYCAREGGNDYYDTMDYWGQGTLVTVSS VL: DIQMTQSPSSLSASVGDRVTITCRASQDINSYLHWFQQKPGKAPKTLIYRVNRLVDGVPSRFSGSGSGNDYTLTISSLQPEDFATYYCLQYDAFPYTFGQGTKVEIK
16 | binds | MYT2778 (antibody, V domains shown, IgG) VH: QVQLVQSGAEVKKPGASVKVSCKASGYIFTSSIMHWVRQAPGQGLEWIGYIKPYNDGTKYNEKFKGRATLTSDRSTSTAYMELSSLRSEDTAVYYCAREGGNDYYDTMDYWGQGTLVTVSS VL: DIQMTQSPSSLSASVGDRVTITCRASQDHNSYLSWFQQKPGKAPKTLIYRVNRLVDGVPSRFSGSGSGNDYTLTISSLQPEDFATYYCLQYDAFPYTFGQGTKVEIK
17 | binds | MYT2782 (antibody, V domains shown, IgG) VH: QVQLVQSGAEVKKPGASVKVSCKASGYIFTSSIMHWVRQAPGQGLEWIGYIKPYNDGTKYNEKFKGRATLTSDRSTSTAYMELSSLRSEDTAVYYCAREGGNDYYDTMDYWGQGTLVTVSS VL: DIQMTQSPSSLSASVGDRVTITCRASQDINSYHSWFQQKPGKAPKTLIYRVNRLVDGVPSRFSGSGSGNDYTLTISSLQPEDFATYYCLQYDAFPYTFGQGTKVEIK
18 | binds | MYT2794 (antibody, V domains shown, IgG) VH: QVQLVQSGAEVKKPGASVKVSCKASGYIFTSSIMHWVRQAPGQGLEWIGYIKPYNDGTKYNEKFKGRATLTSDRSTSTAYMELSSLRSEDTAVYYCAREGGNDYYDTMDYWGQGTLVTVSS VL: DIQMTQSPSSLSASVGDRVTITCRASQDINSYLSWFQQKPGKAPKTLIYRVNRLVDGVPSRFSGSGSGNDYTLTISSLQPEDFATYYCLQYHAFPYTFGQGTKVEIK
19 | binds | MYT2787 (antibody, V domains shown, IgG) VH: QVQLVQSGAEVKKPGASVKVSCKASGYIFTSSIMHWVRQAPGQGLEWIGYIKPYNDGTKYNEKFKGRATLTSDRSTSTAYMELSSLRSEDTAVYYCAREGGNDYYDTMDYWGQGTLVTVSS VL: DIQMTQSPSSLSASVGDRVTITCRASQDINSYLSWFQQKPGKAPKTLIYRVNHLVDGVPSRFSGSGSGNDYTLTISSLQPEDFATYYCLQYDAFPYTFGQGTKVEIK
20 | binds | MYT2784 (antibody, V domains shown, IgG) VH: QVQLVQSGAEVKKPGASVKVSCKASGYIFTSSIMHWVRQAPGQGLEWIGYIKPYNDGTKYNEKFKGRATLTSDRSTSTAYMELSSLRSEDTAVYYCAREGGNDYYDTMDYWGQGTLVTVSS VL: DIQMTQSPSSLSASVGDRVTITCRASQDINSYLSWFQQKPGKAPKTLIYHVNRLVDGVPSRFSGSGSGNDYTLTISSLQPEDFATYYCLQYDAFPYTFGQGTKVEIK
